This note sets out measurements from publication PMC4870115 (Biochemistry, 2016).

This series concerns the molecule itself. In words: crystal structure.

B1: ToxA of Burkholderia glumae (enzyme)
chain: MSTTARYDSIGGLFEDFTQSAAQRAIEVRTIFHMIGDVSGKSVLDLACGFGFFGREIYRRGAAKVVGVDISEKMIELAREESRKYGDPLEFHVRDVANMEPLGQFDLVNAAWLFNYADSVENLRKMFKVVRASLKPDGKLVAYTVDPDFSLAKGNFAKYGVNVLNERAWGPGYRHDAEFVTDPPSQFSFYRWSRADYESAIADAGFSHFEWQKPLLEADDIATHPPGFWDVFQNNCLQTGLVCKP
With B1, the “stoichiometry N” value came to 4.

In general, stoichiometry N refers to the number of molecules, sites or subunits per partner or assembly.
